Our source for the Kd values is publication PMC7948816 (2021).

The target of experiment [1] is T1, alpha-tropomyosin (Oryctolagus cuniculus, UniProt P58772). Kind of experiment: ITC. A general note: ITC needs no label: the signal is the heat of the interaction.
Experiment [2] concerns the target T1, alpha-tropomyosin. Kind of experiment: fluorescence titration.

Broadly, the Kd is the constant that tells how readily two partners part at equilibrium.

T1 sequence (P58772 whole entry): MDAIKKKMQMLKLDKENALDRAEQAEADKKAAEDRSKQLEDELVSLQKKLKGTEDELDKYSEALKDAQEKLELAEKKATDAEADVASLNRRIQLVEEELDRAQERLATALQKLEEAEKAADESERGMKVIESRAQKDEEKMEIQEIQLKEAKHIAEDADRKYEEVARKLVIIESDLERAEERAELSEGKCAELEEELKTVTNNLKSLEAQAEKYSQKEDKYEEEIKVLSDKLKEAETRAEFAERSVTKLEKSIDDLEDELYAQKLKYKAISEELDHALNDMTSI

B1: cardiac troponin I C-terminal peptide HcTnI-C27 184-210 (peptide)
chain: ENREVGDWRKNIDALSGMEGRKKKFES
Turning to B1, the equilibrium dissociation constant (Kd) turned out to be 11 µM with alpha-tropomyosin [1] and 8 µM with alpha-tropomyosin [2].

B2: cardiac troponin I C-terminal peptide HcTnI-C27-H 184-210 (peptide)
chain: ENREVGDWHKNIDALSGMEGRKKKFES
On to B2, for which the affinity with alpha-tropomyosin [2], expressed as Kd, was 15 µM.
